In the DeepSol protein solubility set:

Assay: soluble on expression in E. coli; label from the status in PepcDB or PDB records

Sequence	soluble on expression in E. coli
MSLKLVRKFARDIEVDELAICIPLEYKSACLIYELSRYTNVYAAKLDDFSTKPEVVSWLKEKGVEVKMKRDVVNAEYFLDCAAVLSRVAVKSGKERLKVVELTKTGEEYLRKMDVRMKAISLDSSTLKGTGENTHGTAFGLLDALLRLNVFLPGKKALILGFGRVGRGCARLLKSVGCDVAVWDNDETRQIEALYEGFRVEKDFTAEVVVTCTGVKGVLGKEELEEISDGSIILNMGAEMEIEPAGELIKDYGLVKEYEIAGKRYFLVADGYAANLALGSGTPIEVMDRTFSAAILALNHLSRSDFDGIIPLPHHIESTILEAIMMYEGHHHHHH	not soluble
MKQTFITLGEGLTDLFEFMTMIEYNHQRIDKIIYFHSPQAENKKSSVAIIMNPTTGNHFQAFYIMINAIKYPYPDSNKKFQMINDCAEKFDIPILGIDVQPPQAFHDLSLYYNYLISVLRLQKWIPELQLEHHHHHH	not soluble
MTNDKMLARIAALLRQAEGTDNPHEADAFMSTAQRLATAASIDLAVARSHAGNRSPAQAPTQRTITIGAAGTRGLRTYVQLFVLIAAANDVRCDVASNSTFVYAYGFAEDIDTSHALYASLVVQMVRASDAYLASGAHRPTPTITARLNFQLAFGARVGQRLADAREQTRQEATKDRDRPPGTAIALRDKDIELHEYYRRSSKARGAWRASRATAGYSSAARRAGDRAGRQARLGNNPELPGARAALGR	soluble
MHHQSVLHSGYFHPLLRSWQTAASTVSASNLIYPIFVTDVPDDVQPIASLPGVARYGVNQLEEMLRPLVEAGLRCVLIFGVPSRVPKDEQGSAADSEDSPTIEAVRLLRKTFPSLLVACDVCLCPYTSHGHCGLLSENGAFLSEESRQRLAEVALAYAKAGCQVVAPSDMMDGRVEAIKAALLKHGLGNRVSVMSYSAKFASCFYGPFRDAAQSSPAFGDRRCYQLPPGARGLALRAVARDIQEGADMLMVKPGLPYLDMVREVKDKHPELPLAVYQVSGEFAMLWHGAQAGAFDLRTAVLETMTAFRRAGADIIITYFAPQLLKWLKEE	soluble
MKTFNAGRNADTEDELWVVEHPPVFTQGLAGKPEHLLIRDDIPVVQIDRGGQITYHGPGQLVVYTMIDFKRRKTSVRNIVSALENSIIATLAEYGIEAAADPKRPGVYVGERKIASLGLRIKNGSVYHGLALNVNMDLSPFTHINPCGYAGMEMTQIADFVQPCPTPDEVAAKLTAHLETQFTPKADNNE	not soluble
MIIQNEFNLYPSNMLPERFCYPEKYVRISNDTSLIPYIQPHNFHWWFENYGTEGAEVAYIFRNSILPDLNLIPFASNGEWEAYFDGNDVTGNSRVIVINLDNIENHEFFNSFEDWLELAIKDTW	not soluble
MEQMIFIRKDDKVEVFSEEEELKGSYYRAILEDNPTKSGHNKLKVRYLTQLNEHRLAPLTEFVDQRFIRPVPSEDVNDGVVFVEGLMVDAYLKDGWWTGVVVKTMEDEKFLVYFDCPPDIIQFEKKKLRVHLDWTGFKWIRPDNKELVKSVFSCGTMVELRFDCAWIPVIVIKELEKDKRFLVKYWNKSYSCRESKNLIVDSLRLRPMQPPLSVGKYELLDHVEAFSGFEWRQGVVRGIVFEGRYMVSFGATKEASQFNHSDIRPPMEWEDGVWHKRTKPKRQKETSLDGNRNVQTKEPPGNEMADDVKKESGLPITLGVTATKNKTQGKVSPVPMKNGFGNESTREKMPEEPKIKYYTRKRKRGGLKLNSYINKTVLSSDRTPNVVKNSASNAEENHAKHTIMVLPFAKKSPVWKTYESLEVFKSVSHSLHFSPLFETKQDFREGYAIGMMVTYFGLLEKFKDLEADVPVSQLNSLKDSFSELEKHGFNVTTPLSRIDKLLALKDRQLYIMEELKGFDKEMTNEFSKAKQEFDDMEQKILEVKHKIIELQRQEAALKEQKEAEKEQKDAAWKKICQMESCAKDLNVELEDVEFEFETILSAPW	soluble
MLDHVSITVSDIAVAEPFYDAIMAALGVVKVGARGDWLGYGERARPEHPDRVYLSIRKGDRPEPAYGRHWCFKATSRAVVDAFWQAGLAHGGVDQGAPGLRDYHPGYYAAFIADPDGNRLEAVCHTLG	not soluble
MHIIFDTSGFLSGLQLSLDRVYTTQEVINEIKDKYSRFNLEIAISSGKVIIMKPSTRSVEKVTKVLNLTKERKLSNTDISVIALALDLQPSIVFTDDLSVQNILKQLGIQFSSVKINKKVEKSFKFKYVCVNCKREFNIDHGECPYCGGKVVKRRIMELEHHHHHH	not soluble
MMIFRFVTTLAASLPLLTFAAPISFSHAKNEAVKIYRDHPVSFYCGCEIRWQGKKGIPDLESCGYQVRKQENRASRIEWEHVVPAWQFGHQLQCWQQGGRKNCTRTSPEFNQMEADLHNLTPAIGEVNGNRSNFSFSQWNGIDGVTYGQCEMQVNFKERTAMPPERARGAIARTYLYMSEQYGLRLSKAQNQLMQAWNNQYPVSEWECVRDQKIEKVQGNSNRFVREQCPN	soluble
MFAPALAYPRPMPELPEVETTRRKIEPLLRGKTIERIVHDAPHRYRNTERAHGRQVRGLTRRGKYLLLHLAAADAAEDEPHDLELIVHLGMTGGFRLEEGPHTRVTFELGSGEKLYFNDPRRFGKVVAVAPGDYASMPTLAAMGPEPLSDDFTEAEFVALAARCGPVKPWLLSQKPVSGVGNIYADESLWHARLHPAQTRLNADEAGRLYRAIREVMAAAVDKGGSSLGNGVGNYRQHDGEGGGFQHSHHVYGRAGQPCDRCGTPIEKIVLGQRGTHFCPVCQPLRTDRSA	not soluble
MVRVRPSCQVAQSDCGLACVHMLIQSFGISASLRKMRVTYAPGRDGLSLRALTQILSDFGLNSKVVKCSYSNLSRVPLPAIIAWEPAHYVVLEKRLGDSWRIVDPSSGRRWCSKKEIEANFRSFCVTGARGNTKVSEGQVSDDPSWKSLAVLLAGK	not soluble
MTKLNAFLDTLGEGIRQKFWDIVAAAKTDAQTNLPSDKAKELAGEVISDFEQGNLFKSHQEISAELKSKFESLDDADKAAVKNLAKVYGKQAKALVMPHLPEDCKAKTDATDDAGKAAVAGGFDTGDYLPRKKRELLFIDNLTAAFREMRSRRGF	not soluble
MLLLSGFRYFRAVGVALLFLSVSLATVRADVRPETWQVVVDAGSSKTRGILYRLSADAVTPVVEYNSKLPLARYAGVPDESGNLLIAPLLDTLERLANDQKYALEKKTVLVNVLGTAGMRELSAGQQGVIYEAVKKSILAKGWALGQVGTIDGRDEGIFAWVHLNFLKGLATSDNTLGIIEMGGASSQITFALRSPPMDKADVSQNARTVMWDGKTYSVISESLLGLGADAARTAMNKVRPQDQRCYPQGALIMKVPTTGAFDFTACDLVYDEAIAANYQSEIKKLDAIVASSNYTQTDFVGLSSLYYTLNFFNNDLPERGTLKSALEQSCQRYADIEERLRQDDSKDKYQPENKCANGVFVYDLLYDYLQLGDGRLTALKKVENMDIRWTDGFLLLGKQAPLEHHHHHH	not soluble
GEKVDFDDIQKKRQNKDLIELQALIDSHFEARRKEEEELVALKERIEKRRAERAE	soluble
MSTLGHQYDNSLVSNAFGFLRLPMNFQPYDSDADWVITGVPFDMATSGRAGGRHGPAAIRQVSTNLAWEHNRFPWNFDMRERLNVVDCGDLVYAFGDAREMSEKLQAHAEKLLAAGKRMLSFGGDHFVTLPLLRAHAKHFGKMALVHFDAHTDTYANGCEFDHGTMFYTAPKEGLIDPNHSVQIGIRTEFDKDNGFTVLDACQVNDRSVDDVIAQVKQIVGDMPVYLTFDIDCLDPAFAPGTGTPVIGGLTSDRAIKLVRGLKDLNIVGMDVVEVAPAYDQSEITALAAATLALEMLYIQAAKKGE	soluble
FMDELVSLTYRSRVRLADPVADIVQIMRASRVRNLRLGITGILLYNGVHFVQTIEGPRSACDELFRLISADPRHQEILAFDLEPITARRFPDWSMRIVSRKELRALAPDLERLDLSGPEDVAELHRTIAASLSRGDA	soluble
MGSDKIHHHHHHMSASSQSPKGDGLLQTISVKILKRVGKEEVAYVYLGETSRGNLVEFVESIQPPVPREKKWVLIVSTLAGCPVGCLMCDAGGFYRGKLSADEIFEQIDFLVKSRYPNGRIPSEKFKIQFARMGEPALNEAVLDVLKELPARYEAPGLMPSISTVAPCGTDSFFEDLLKIKEKHYRGKFQLQFSIHSTDEKERDQIIPVKKWSLEKISEFGKRFVKENDRKITLNFAVAQEYSLDPKVIIRVFDPEKFLVKITPVNPTYRSKENNLNSDVDVERKELLKHRNFIEELKKAGFEVILSIGELEENKIGSNCGQYVQRHLMSERKIVDGYQYV	not soluble
MCEIFAKQPQDNYQFITRSIRIDGHATSVKLESSFWTILEEIASAQDMTVPKFISTVYQEALEYNGEVNNFASLLRCACLTYARQPENTLHQALAQLN	not soluble
MFPKNAWYVACTPDELAGKPLGRRICDEPMVFYRGEDGRVAALEDFCPHRGAPLSLGFVEDGVLVCGYHGLAMGEDGRTRAMPGQRVRGFPCIRRFPVQERHGFVWVWPGAEEQADDALIPRLEWAESPDWAYGGGLYHIHCDYRLMIDNLMDLTHETYVHASSIGQKEIDEAAPTTRVEGDEVITSRHMQNVMAPPFWRMALRGNGLADDVAVDRWQICRFTPPSHVLIEVGVAHAGHGGYQAPAERKAASIVVDFITPESATSIWYFWGMARNFQAHDQALTESIREGQGKIFGEDLEMLESQQRNLLRHPRRDLLKLNIDAGGVQARRIIERLLADER	not soluble
MTTVIVANDLVGFGKVALTSSLLPIMSACQTEVLPLPTVLLSSHTGEFDNIYVRYLTVDMQGFCGQWKRLDFRVDGLVGGYFKSEEELGLVSQCLTKKRFLFLLDPIMGDNGRLYQGFDRDYVEAMKDFCQQADVIIPNLTEAALLTGSPYLEEGSYDMTTIENLLRNLSRLGPRKVILTGISFETEKIGLAYFDKETNQVIYRMRKRYQSHFYGSGDLLTAILSAGYFHNLDFLKVCDLALDFLNKVLLFTLSSGRPLKYGLCYEPLYRLFI	soluble
MNSLSLPHRYPFLFIDGVTDSEPGKHAAAYKLISENDWFITDTQTEMPFSLVIEGLRKPRLLQELQMRTAWDYCLRKRKSWEKLCLVTGLILRLKSRAIGAGLCSDMPRHQLESSLLLKLKSASILKNEKNPSQHFVRGSILCRNPVRFESYLFAGVCVFHHSYFPSALHLEHHHHHH	not soluble
MFQQQKDWETRENAFAAFTMGPLTDFWRQRDEAEFTGVDDIPVRFVRFRAQHHDRVVVICPGRIESYVKYAELAYDLFHLGFDVLIIDHRGQGRSGRLLADPHLGHVNRFNDYVDDLAAFWQQEVQPGPWRKRYILAHSMGGAISTLFLQRHPGVCDAIALTAPMFGIVIRMPSFMARQILNWAEAHPRFRDGYAIGTGRWRALPFAINVLTHSRQRYRRNLRFYADDPTIRVGGPTYHWVRESILAGEQVLAGAGDDATQTLLLQAEEERVVDNRMHDRFCELRTAAGHPVEGGRPLVIKGAYHEILFEKDAMRSVALHAIVDFFNRHNSPSGNRSTEV	not soluble
MGSDKIHHHHHHMKKIGIIGGGQLGKMMTLEAKKMGFYVIVLDPTPRSPAGQVADEQIVAGFFDSERIEDLVKGSDVTTYDLEHIDVQTLKKLYNEGYKIHPSPYTLEIIQDKFVQKEFLKKNGIPVPEYKLVKDLESDVREFGFPVVQKARKGGYDGRGVFIIKNEKDLENAIKGETYLEEFVEIEKELAVMVARNEKGEIACYPVVEMYFDEDANICDTVIAPARIEEKYSKIAREIATSVVEALEGVGIFGIEMFLTKQGEILVNEIAPRPHNSGHYTIEACVTSQFEQHIRAIMNLPLGSTELLIPAVMVNLLGEEGYYGKPALIGLEEALAIEGLSLHFYGKKETRPYRKMGHFTVVDRDVERALEKALRAKKILKVVSEEGAMCQG	not soluble
